Reference: patent US20240190996A1 (Regeneron, published 2024)

What was measured:
[1] = target: T1, mfFXI.mmh (REGN3883) (cynomolgus monkey (Macaca fascicularis), UniProt A0A2K5VVW4 19-624); assay: SPR (Biacore), mAb captured on anti-hFc, antigen injected, 37C
T1 construct: also called monkey FXI.mmh; recombinant cynomolgus monkey FXI; not shown: mmH tag

[2] = target: T2, human coagulation factor XI (hFXI), plasma-derived (ERL) (human, UniProt P03951 19-625); assay: SPR (Biacore), mAb captured on anti-hFc, antigen injected, 25C
T2 construct: also called hFXI (ERL); human FXI
Protocol: (§1) Then, all FXI solutions were injected on Biacore 8K at 30 μL/min for 180 seconds and dissociation was monitored for 10 minutes.

[3] = target: T3, hFXI.mmh (REGN3848) (human, UniProt P03951 19-625); assay: as above
T3 construct: Human FXI with a C-terminal myc-myc-hexahistidine tag; also called human FXI.mmh; recombinant human FXI
Protocol: as §1

[4] = target: T3, hFXI.mmh (REGN3848); assay: SPR (Biacore), mAb captured on anti-hFc, antigen injected, 37C
Protocol: as §1

[5] = target: T2, human coagulation factor XI (hFXI), …; assay: as above
Protocol: as §1

[6] = target: T4, rbFXI.mmH (rabbit, UniProt G1SSQ6 19-623); assay: SPR (Biacore), REGN7508 captured on anti-hFcG, rbFXI.mmH injected, 25C, pH 7.4
T4 construct: also called recombinant rabbit FXI; not shown: mmH tag

[7] = target: T5, human activated factor XI (hFXIa), plasma-derived (ERL) (human, UniProt P03951 19-387; P03951 388-625); assay: SPR (Biacore), mAb captured on anti-hFc, antigen injected, 37C
T5 construct: After cleavage each subunit is two disulfide-linked chains; also called hFXIa (ERL); human FXIa
Protocol: as §1

[8] = target: T5, human activated factor XI (hFXIa), …; assay: SPR (Biacore), REGN7508 captured on anti-hFcG, antigen injected, 25C, pH 7.4
Protocol: (§2) Each concentration was tested in duplicate.
(§3) Specific binding signals were obtained by a double referencing procedure and plotted as SPR sensorgrams. […] The kinetic parameters were obtained by globally fitting these specific binding signals to a 1:1 binding model with mass transport limitation. The equilibrium dissociation constant (KD) was calculated from the ratio of the dissociation rate constant to the association rate constant (KD=kd/ka).

[9] = target: T1, mfFXI.mmh (REGN3883); assay: as above
Protocol: as §2, §3

[10] = target: T3, hFXI.mmh (REGN3848); assay: as above
Protocol: as §2, §3

[11] = target: T2, human coagulation factor XI (hFXI), …; assay: as above
Protocol: as §2, §3

[12] = target: T1, mfFXI.mmh (REGN3883); assay: SPR (Biacore), mAb captured on anti-hFc, antigen injected, 25C
Protocol: as §1

[13] = target: T2, human coagulation factor XI (hFXI), …; assay: SPR (Biacore), mAb captured on anti-hFc, antigen injected, 25C; 25 C
Protocol: as §1

[14] = target: T5, human activated factor XI (hFXIa), …; assay: SPR (Biacore), mAb captured on anti-hFc, antigen injected, 25C
Protocol: as §1

[15] = target: T6, mFXI.mmH (mouse, UniProt Q91Y47 19-624); assay: SPR (Biacore), REGN7508 captured on anti-hFcG, mFXI.mmH injected, 25C, pH 7.4
T6 construct: also called recombinant mouse FXI; not shown: mmH tag

[16] = target: T5, human activated factor XI (hFXIa), …; assay: cell-based or functional assay
[17] = target: T2, human coagulation factor XI (hFXI), …; assay: cell-based or functional assay

T1 sequence (A0A2K5VVW4 entry or part of it): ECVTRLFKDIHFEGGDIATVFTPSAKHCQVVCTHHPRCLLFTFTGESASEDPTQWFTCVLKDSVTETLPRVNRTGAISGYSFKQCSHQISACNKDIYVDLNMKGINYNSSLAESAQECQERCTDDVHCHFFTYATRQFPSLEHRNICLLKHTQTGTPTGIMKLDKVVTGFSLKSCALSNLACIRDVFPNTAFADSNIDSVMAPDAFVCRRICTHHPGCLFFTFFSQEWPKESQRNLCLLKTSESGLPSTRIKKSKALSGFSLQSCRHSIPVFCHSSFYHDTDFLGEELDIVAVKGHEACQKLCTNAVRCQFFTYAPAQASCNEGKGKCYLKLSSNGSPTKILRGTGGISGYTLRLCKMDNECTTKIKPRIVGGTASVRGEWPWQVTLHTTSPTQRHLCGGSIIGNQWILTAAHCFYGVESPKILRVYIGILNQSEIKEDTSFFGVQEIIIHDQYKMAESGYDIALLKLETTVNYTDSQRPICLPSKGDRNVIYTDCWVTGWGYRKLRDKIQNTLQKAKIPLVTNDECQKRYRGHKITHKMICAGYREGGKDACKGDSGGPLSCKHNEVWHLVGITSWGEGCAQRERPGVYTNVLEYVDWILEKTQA
T5 sequence (P03951 19-387 limits assumed, chain 1 of 2): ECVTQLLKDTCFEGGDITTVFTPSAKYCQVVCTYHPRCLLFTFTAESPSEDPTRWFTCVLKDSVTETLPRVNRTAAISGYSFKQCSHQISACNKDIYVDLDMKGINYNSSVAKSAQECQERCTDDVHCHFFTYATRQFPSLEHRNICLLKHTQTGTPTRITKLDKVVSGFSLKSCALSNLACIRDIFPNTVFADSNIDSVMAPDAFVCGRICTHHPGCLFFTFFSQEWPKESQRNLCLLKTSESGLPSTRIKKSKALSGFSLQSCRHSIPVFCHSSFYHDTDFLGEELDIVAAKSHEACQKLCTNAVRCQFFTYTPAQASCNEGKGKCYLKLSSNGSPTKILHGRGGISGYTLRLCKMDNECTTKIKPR
T5 sequence (P03951 388-625 limits assumed, chain 2 of 2): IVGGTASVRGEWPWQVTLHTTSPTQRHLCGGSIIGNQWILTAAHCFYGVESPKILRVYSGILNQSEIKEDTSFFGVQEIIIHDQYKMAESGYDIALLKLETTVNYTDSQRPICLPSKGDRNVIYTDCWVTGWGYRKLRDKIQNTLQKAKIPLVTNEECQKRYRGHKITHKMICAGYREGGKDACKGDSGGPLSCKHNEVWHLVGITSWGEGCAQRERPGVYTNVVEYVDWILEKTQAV
T2 sequence (P03951 19-625): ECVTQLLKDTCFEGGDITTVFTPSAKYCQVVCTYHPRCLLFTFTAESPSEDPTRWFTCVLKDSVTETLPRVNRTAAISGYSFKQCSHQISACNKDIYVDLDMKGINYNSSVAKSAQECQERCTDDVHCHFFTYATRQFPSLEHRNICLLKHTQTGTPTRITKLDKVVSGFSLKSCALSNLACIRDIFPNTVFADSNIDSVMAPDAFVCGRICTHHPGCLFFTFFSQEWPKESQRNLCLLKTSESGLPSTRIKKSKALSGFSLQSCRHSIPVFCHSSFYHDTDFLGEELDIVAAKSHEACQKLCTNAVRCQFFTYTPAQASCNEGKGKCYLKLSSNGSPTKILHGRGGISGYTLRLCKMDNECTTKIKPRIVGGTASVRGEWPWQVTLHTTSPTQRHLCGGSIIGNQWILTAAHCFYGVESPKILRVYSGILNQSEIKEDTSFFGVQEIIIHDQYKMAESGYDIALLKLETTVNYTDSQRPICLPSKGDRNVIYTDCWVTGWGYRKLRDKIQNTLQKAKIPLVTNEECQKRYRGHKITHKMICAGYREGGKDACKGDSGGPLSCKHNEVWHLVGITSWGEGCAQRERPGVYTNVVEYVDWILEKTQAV
T3 sequence (P03951 other isoform, or with tags, fused parts or gaps limits assumed): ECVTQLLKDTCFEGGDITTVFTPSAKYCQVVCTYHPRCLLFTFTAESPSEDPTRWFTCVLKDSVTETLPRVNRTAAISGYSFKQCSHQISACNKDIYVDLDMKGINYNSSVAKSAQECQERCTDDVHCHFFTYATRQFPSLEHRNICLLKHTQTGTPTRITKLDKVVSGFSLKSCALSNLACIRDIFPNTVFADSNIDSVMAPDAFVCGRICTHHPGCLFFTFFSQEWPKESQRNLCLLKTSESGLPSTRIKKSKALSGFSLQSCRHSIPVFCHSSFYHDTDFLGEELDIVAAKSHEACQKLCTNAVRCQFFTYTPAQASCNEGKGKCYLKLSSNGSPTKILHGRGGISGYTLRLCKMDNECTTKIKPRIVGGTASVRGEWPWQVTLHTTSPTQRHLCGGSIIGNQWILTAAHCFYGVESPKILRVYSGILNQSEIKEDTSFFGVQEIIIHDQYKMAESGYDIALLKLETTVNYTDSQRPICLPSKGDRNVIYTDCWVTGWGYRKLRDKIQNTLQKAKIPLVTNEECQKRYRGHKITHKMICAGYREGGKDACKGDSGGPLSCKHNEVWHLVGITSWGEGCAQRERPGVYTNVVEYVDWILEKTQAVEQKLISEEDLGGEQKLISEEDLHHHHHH
T4 sequence (G1SSQ6 entry or part of it): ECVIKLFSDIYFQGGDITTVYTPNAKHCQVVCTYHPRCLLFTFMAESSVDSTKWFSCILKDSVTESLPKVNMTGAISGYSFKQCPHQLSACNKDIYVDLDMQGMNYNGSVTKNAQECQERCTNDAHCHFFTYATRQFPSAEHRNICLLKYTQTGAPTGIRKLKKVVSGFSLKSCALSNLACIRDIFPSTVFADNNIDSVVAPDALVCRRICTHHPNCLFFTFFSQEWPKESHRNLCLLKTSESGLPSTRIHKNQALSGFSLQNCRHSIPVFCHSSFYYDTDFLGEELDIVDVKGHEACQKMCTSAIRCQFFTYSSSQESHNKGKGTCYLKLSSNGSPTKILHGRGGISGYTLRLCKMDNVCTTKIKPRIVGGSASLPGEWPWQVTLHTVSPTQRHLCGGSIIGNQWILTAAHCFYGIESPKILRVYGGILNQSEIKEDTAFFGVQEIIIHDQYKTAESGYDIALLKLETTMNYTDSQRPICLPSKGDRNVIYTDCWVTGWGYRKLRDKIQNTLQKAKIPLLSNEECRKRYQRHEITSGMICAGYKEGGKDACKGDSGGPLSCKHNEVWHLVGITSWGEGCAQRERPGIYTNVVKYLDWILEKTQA
T6 sequence (Q91Y47 19-624): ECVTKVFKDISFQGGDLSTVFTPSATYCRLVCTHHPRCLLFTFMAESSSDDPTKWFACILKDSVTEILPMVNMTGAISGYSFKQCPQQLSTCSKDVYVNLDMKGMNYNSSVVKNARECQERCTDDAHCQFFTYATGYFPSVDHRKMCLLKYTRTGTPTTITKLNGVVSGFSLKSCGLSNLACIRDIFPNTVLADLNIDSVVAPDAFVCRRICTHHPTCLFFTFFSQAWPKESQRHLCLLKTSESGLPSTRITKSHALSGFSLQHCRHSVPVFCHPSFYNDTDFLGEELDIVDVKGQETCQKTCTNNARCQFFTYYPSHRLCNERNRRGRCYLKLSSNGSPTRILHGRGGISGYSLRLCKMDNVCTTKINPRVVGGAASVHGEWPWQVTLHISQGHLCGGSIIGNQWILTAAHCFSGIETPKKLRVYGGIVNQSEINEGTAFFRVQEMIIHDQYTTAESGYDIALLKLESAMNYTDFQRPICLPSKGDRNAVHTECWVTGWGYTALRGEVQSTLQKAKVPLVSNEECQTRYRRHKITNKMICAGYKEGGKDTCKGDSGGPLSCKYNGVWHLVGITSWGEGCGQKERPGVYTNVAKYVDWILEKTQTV

B1: REGN7508 (antibody, human IgG4 S228P, kappa, V domains shown)
VH: QVQLVESGGGLVKPGGSLRLSCAASGFTFSDYSMNWIRQAPGKGLEWISYISFSGNSIYYADSVKGRFTISRDNAKNSLYLQMNSLRVEDTAIYYCTSRDWGYAFDIWGQGTMVTVSS
VL: DIQMTQSPSFLSASLGDRVTITCQASQDISNYLNWYQVKPGKAPKLLIYDASNLETGVPSRFSGSGSGTDFTFTISSLQPEDIATYFCQQYDNLPYIFGQGTKLEIKR
notes: also called Subject mAb [REGN7508]; subject anti-FXI mAb
Kd [1]: 43.5 pM | koff [1]: 0.000111 s⁻¹ | kon [1]: 2.56e+06 M⁻¹ s⁻¹ | t½ [1]: 1.73 h | koff [2]: ≤ 1e-05 s⁻¹ | kon [2]: 2.2e+06 M⁻¹ s⁻¹ | t½ [2]: ≥ 19.2 h | Kd [3]: ≤ 5.34 pM | koff [3]: ≤ 1e-05 s⁻¹ | kon [3]: 1.87e+06 M⁻¹ s⁻¹ | t½ [3]: ≥ 19.2 h | Kd [4]: 32.6 pM | koff [4]: 8.86e-05 s⁻¹ | kon [4]: 2.71e+06 M⁻¹ s⁻¹ | t½ [4]: 2.17 h | Kd [5]: ≤ 3.09 pM | koff [5]: ≤ 1e-05 s⁻¹ | kon [5]: 3.24e+06 M⁻¹ s⁻¹ | t½ [5]: ≥ 19.2 h | binding result [6]: no binding (tested: 250 nM) | Kd [7]: 256 pM | koff [7]: 0.000121 s⁻¹ | kon [7]: 475000 M⁻¹ s⁻¹ | t½ [7]: 1.58 h | Kd [8]: 10.2 pM | koff [8]: 3.61e-05 s⁻¹ | kon [8]: 3.55e+06 M⁻¹ s⁻¹ | t1/2 [8]: 5.33 h | Kd [9]: 3.73 pM | koff [9]: 9.62e-06 s⁻¹ | kon [9]: 2.58e+06 M⁻¹ s⁻¹ | t1/2 [9]: 20 h | Kd [10]: 8.07 pM | koff [10]: 2.7e-05 s⁻¹ | kon [10]: 3.34e+06 M⁻¹ s⁻¹ | t1/2 [10]: 7.13 h | Kd [11]: 3 pM | koff [11]: 9.36e-06 s⁻¹ | kon [11]: 3.12e+06 M⁻¹ s⁻¹ | t1/2 [11]: 20.6 h | Kd [12]: ≤ 4.81 pM | koff [12]: ≤ 1e-05 s⁻¹ | kon [12]: 2.08e+06 M⁻¹ s⁻¹ | t½ [12]: ≥ 19.2 h | Kd [13]: ≤ 4.54 pM | Kd [14]: ≤ 31.1 pM | koff [14]: ≤ 1e-05 s⁻¹ | kon [14]: 321000 M⁻¹ s⁻¹ | t½ [14]: ≥ 19.2 h | binding result [15]: no binding (tested: 50 nM)

B2: REGN9932 (antibody, human IgG4 S228P, kappa, V domains shown)
VH: QVQLVESGGGVVQPGRSLRLSCAASGFTFSNYEMHWVRQTPGKGLEWVALIWYDGSNKYSGDSVKGRFTISRDNSKSTLYLQMNSLTAEDTAVYYCTGITGTEDAFDVWGQGTMVTVSS
VL: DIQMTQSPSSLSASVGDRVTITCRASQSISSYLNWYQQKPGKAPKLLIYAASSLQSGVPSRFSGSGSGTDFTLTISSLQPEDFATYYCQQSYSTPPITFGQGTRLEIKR
notes: also called anti-FXI mAb [REGN9932]
Kd [1]: 268 pM | koff [1]: 8.6e-05 s⁻¹ | kon [1]: 321000 M⁻¹ s⁻¹ | t½ [1]: 2.24 h | Kd [2]: ≤ 119 pM | koff [2]: ≤ 1e-05 s⁻¹ | kon [2]: 83800 M⁻¹ s⁻¹ | t½ [2]: ≥ 19.2 h | Kd [3]: ≤ 116 pM | koff [3]: ≤ 1e-05 s⁻¹ | kon [3]: 86200 M⁻¹ s⁻¹ | t½ [3]: ≥ 19.2 h | Kd [4]: 387 pM | koff [4]: 8.77e-05 s⁻¹ | kon [4]: 226000 M⁻¹ s⁻¹ | t½ [4]: 2.19 h | Kd [5]: 36.5 pM | koff [5]: ≤ 1e-05 s⁻¹ | kon [5]: 274000 M⁻¹ s⁻¹ | t½ [5]: ≥ 19.2 h | IC50 [M], FXIa, 0.13% plasma (chromogenic FXa generation, BIOPHEN Factor XIa kit) [16]: > 1e-08 M | IC50 [M], FXI, 0.13% plasma (chromogenic FXa generation, BIOPHEN Factor XIa kit) [17]: 1.9e-10 M | Kd [12]: ≤ 64.4 pM | koff [12]: ≤ 1e-05 s⁻¹ | kon [12]: 155000 M⁻¹ s⁻¹ | t½ [12]: ≥ 19.2 h
